From PMC6684798, “Structural basis for the target specificity of actin histidine methyltransferase SETD3” (Nature Communications, 2019)

How the values were obtained:
[1] = molecular target: T1, SETD3 (Homo sapiens, UniProt Q86TU7); assay: SETD3 activity on K73(66-80) at two temperatures (Supplementary Fig. 3c); type: biochemical; conditions: overnight, pH 8.0, [E]=15 µM, [SAM]=100 µM, [S]=700 µM
T1 construct: GST (cleaved yes); made in house; host or cells: Escherichia coli BL21(DE3) CodonPlus
T1 sequence (Q86TU7 1-594): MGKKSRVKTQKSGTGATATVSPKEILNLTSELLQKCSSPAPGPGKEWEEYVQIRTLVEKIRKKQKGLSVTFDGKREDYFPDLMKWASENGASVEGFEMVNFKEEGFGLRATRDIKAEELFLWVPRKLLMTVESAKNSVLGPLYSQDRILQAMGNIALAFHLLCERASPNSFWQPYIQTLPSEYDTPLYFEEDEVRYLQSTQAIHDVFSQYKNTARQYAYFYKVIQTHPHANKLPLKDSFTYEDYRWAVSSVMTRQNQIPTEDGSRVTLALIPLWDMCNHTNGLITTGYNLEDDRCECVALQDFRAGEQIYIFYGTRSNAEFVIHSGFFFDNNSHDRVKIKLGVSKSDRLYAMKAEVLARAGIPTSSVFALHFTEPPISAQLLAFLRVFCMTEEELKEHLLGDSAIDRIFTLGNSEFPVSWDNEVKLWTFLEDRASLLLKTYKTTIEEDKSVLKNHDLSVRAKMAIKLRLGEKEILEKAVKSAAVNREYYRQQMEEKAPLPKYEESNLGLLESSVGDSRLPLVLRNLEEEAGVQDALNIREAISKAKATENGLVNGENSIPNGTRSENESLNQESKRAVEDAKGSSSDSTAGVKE
Procedure: (§1) Recombinant human SETD3 (pXC2003) was expressed as a GST-fusion[22] in Escherichia coli BL21(DE3) CodonPlus^TM cells (Stratagene). The SETD3 mutants at residue 255 (N255A; pXC2093 and N255V; pXC2094) were generated with Q5 Site-Directed Mutagenesis Kit (New England Biolabs), confirmed by sequencing and the same protocol for expression and purification were followed. Briefly, the purification was conducted in a BIO-RAD NGC^TM system using a three-column chromatography of glutathione-sepharose, HiTrap Q-HP and Superdex 200. The GST tag was removed by PreScisson Protease (purified in-house). The purified SETD3 proteins at a concentration ~25–35 mg/ml were kept at −80 °C in storage buffer for future use [20 mM Tris (pH 8.0), 200 mM NaCl, 5% glycerol, and 0.5 mM tris (2-carboxyethyl) phosphine (TCEP)].
For H73 (residues 66–80), a reaction mixture contained 20 mM Tris/HCl (pH 8.0), 50 mM NaCl, 0.1 mg/ml BSA, 1 mM DTT, 0.18 µM SETD3, 40 µM SAM, and 20 µM H73 peptide, the reaction was performed for 20 min (Supplementary Fig. 3b). For K73 (residues 66–80), a reaction mixture contained 20 mM Tris/HCl (pH 8.0), 50 mM NaCl, 0.1 mg/ml BSA, 1 mM DTT, 15 µM SETD3, 100 µM SAM, and 700 µM K73 peptide, the reaction was performed overnight (Supplementary Fig. 3c). All reactions were terminated by the addition of TFA to 0.1% (v/v). […]
(§2) conditions optimized for H73(66-80) (red line): [E]=0.18 µM, [SAM]=40 µM, [S]=20 µM, pH 8.0 at room temperature for indicated reaction time. b, SETD3 activity on H73(66-80) at two difference temperatures under the conditions of [E]=0.18 µM, [SAM]=40 µM, [SH7 3]=20 µM at pH 8. 0 for 20 min reaction. c, SETD3 activity on K73 (66-80 ) at room temperature (~22 °C) and 37 °C under the conditions of increased amounts of [E]=15 µM, [SAM]=100 µM and [S K73]=700 µM at pH 8.0 for overnight reaction. Data represent the mean ± SD of N number of independent determinations (N=2 in panels a and b and N=4 in panel c) performed in duplicate. Source data are provided as a Source Data file. d, A stereo image of omit electron density (Fo -Fc) omitting the side chain of K73 in the active site contoured at 4 s above the mean.
(1 picture or pasted object on this page, not shown here)

[2] = molecular target: T1, SETD3; assay: SETD3 activity time course under conditions optimized for H73(66-80) (Supplementary Fig. 3a); type: biochemical; conditions: pH 8.0, room temperature; for CH3 transferred: [E]=0.18 µM, [SAM]=40 µM, [S]=20 µM
Procedure: as §1, with “(TCEP)]. […]” for “(TCEP)].”
as §2, with “Source data are provided as a Source Data file. d, A stereo image of omit electron density (Fo -Fc) omitting the side chain of K73 in the active site contoured at 4 s above the mean.” left out

K73(66–80): K73-containing (H73K) actin peptide, residues 66–80 (TLKYPIEKGIVTNWD; UniProt P60709 66-80, looked up, variant H73K)
CH3 transferred ([1]; 37 °C, replicate 1): 1.773 µM | CH3 transferred ([1]; 37 °C, replicate 2): 2.482 µM | CH3 transferred ([1]; 37 °C, replicate 3): 3.183 µM | CH3 transferred ([1]; 37 °C, replicate 4): 3.325 µM | CH3 transferred ([1]; RT (~22 °C), replicate 1): 0.6813 µM | CH3 transferred ([1]; RT (~22 °C), replicate 2): 0.8003 µM | CH3 transferred ([1]; RT (~22 °C), replicate 3): 0.7535 µM | CH3 transferred ([1]; RT (~22 °C), replicate 4): 0.7963 µM | CH3 transferred ([2]; 0 min, replicate 1): 0 µM | CH3 transferred ([2]; 0 min, replicate 2): 0 µM | CH3 transferred ([2]; 10 min, replicate 1): 0.00913 µM | CH3 transferred ([2]; 10 min, replicate 2): 0.005151 µM | CH3 transferred ([2]; 20 min, replicate 1): 0.005187 µM | CH3 transferred ([2]; 20 min, replicate 2): 0.000604 µM | CH3 transferred ([2]; 30 min, replicate 1): 0.002842 µM | CH3 transferred ([2]; 30 min, replicate 2): -0.00142 µM | SETD3 activity under conditions optimized for H73 peptide ([2]; [E] = 0.18 µM, [SAM] = 40 µM, [S] = 20 µM): no activity
